Tests used:
[1] = biological target: Ldb16 (1-133 6A)-FLAG, genomically expressed (S. cerevisiae) (UniProt P25587); experiment: co-IP
[2] = biological target: Ldb16 (1-133 ΔH)-FLAG, genomically expressed (S. cerevisiae) (UniProt P25587); experiment: co-IP

Ldo co-immunoprecipitation compared to Ldb16 1-133 (% lower than 1-133) [1] | Ldo co-immunoprecipitation compared to Ldb16 1-133 (% lower than 1-133) [2] | Binder
50 | 50 | Ldo45-HA, endogenously tagged (natural protein) MAARNRRKNNKKKSLLVTSAAQEKNATYVLVAEELHKKTIDLNMGTETPLTENHENPIPAKEFKHQQKLEPIDEHDDGEDELSIKFKSMTKSSGPITEAEVQKLLLSYAFTSAAIQEDENEKESRHYPIKPPSPSASSLSAYFQSFVEKCKQVFYNFSLQTVEKLNALQNSLYEVFWIIFIYLNYWFPNVGDYVSNTFGQQDSIIIRISLSKSHFRALREKSSQKVQQAVKNIYFCFQEKPYLTAFKVSFAIGLVIPCSLLFLIMVSTATFFFFVYLTLFVVIGFFSSLFIIPLLGISFVFAIGVVSFGFCSNMSFKMAQLIYVRADAFLKKVLDKMALQTQPAQLQEPQEPLSTLRPVSNPTIPSPLRQTARPSKFVTEEDVIFEPVSAQSAIARSLETTANKAGNKFQLS
50 | 50 | Ldo16-HA, endogenously tagged (natural protein) MVSTATFFFFVYLTLFVVIGFFSSLFIIPLLGISFVFAIGVVSFGFCSNMSFKMAQLIYVRADAFLKKVLDKMALQTQPAQLQEPQEPLSTLRPVSNPTIPSPLRQTARPSKFVTEEDVIFEPVSAQSAIARSLETTANKAGNKFQLS

Reference: doi:10.1101/2025.03.14.642698
